Here are results for one substance from publication PMC13098475.

The assay deals with traptavidin (streptavidin-variant), expressed and purified by IMAC (Streptomyces avidinii) (UniProt P22629). Put plainly: native MS; native electrospray ionization mass spectrometry of the IMAC-purified proteins; oligomeric state of the protomers (tetramer), no cross-linker.

On to “traptavidin (streptavidin-variant), expressed and purified by IMAC (from UniProt P22629 25-183) (natural protein)”, for which the percent of the protein that is tetrameric came out at 95% and the stoichiometry N is 4.
